Assay results reported in patent US20130338077A1 (INDIANA UNIVERSITY RESEARCH AND TECHNOLOGY, published 2013).

Molecular target: T1, recombinant human p65 protein, full-length, with DDK (r-p65:DDK) (human, UniProt Q04206 1-551)
T1 construct: mature; also called full-length r-p65:DDK; p65 subunit of NF-kB; not shown: DDK tag
Assay: kinetic ELISA, plate-bound GILZ-P probed with r-p65:DDK; Scatchard plot and linear regression; plate-bound GILZ-P (synthetic peptide), not r-GILZ

T1 sequence (Q04206 whole entry): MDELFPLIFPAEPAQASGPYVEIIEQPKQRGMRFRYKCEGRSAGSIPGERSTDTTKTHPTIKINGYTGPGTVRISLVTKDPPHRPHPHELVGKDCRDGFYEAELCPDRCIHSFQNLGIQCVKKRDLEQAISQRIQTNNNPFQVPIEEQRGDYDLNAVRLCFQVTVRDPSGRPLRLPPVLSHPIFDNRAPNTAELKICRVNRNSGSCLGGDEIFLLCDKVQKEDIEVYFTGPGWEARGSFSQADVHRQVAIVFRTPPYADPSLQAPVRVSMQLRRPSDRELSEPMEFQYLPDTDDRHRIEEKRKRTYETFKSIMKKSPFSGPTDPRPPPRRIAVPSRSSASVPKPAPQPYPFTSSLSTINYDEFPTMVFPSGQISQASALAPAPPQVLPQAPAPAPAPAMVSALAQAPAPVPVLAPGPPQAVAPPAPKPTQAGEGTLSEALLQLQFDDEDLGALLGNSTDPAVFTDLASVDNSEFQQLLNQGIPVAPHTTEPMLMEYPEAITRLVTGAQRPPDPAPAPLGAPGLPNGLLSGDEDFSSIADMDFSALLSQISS

Kd: 1120 nM
Binder: Ac-CLSPEEPAPESPQVPEAPGGSAV-NH2 (also called GILZ-WT; GILZ-P115-137) [GILZ-peptide (GILZ-P), synthetic peptide from the carboxy terminus of GILZ]
